In the nanobody polyreactivity screen of Harvey et al. (2022):

Assay: yeast display, Sf9 membrane polyspecificity reagent, FACS + sequencing; frameworks hold sequencing errors
Outline: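 Nanobodies from a synthetic yeast display library (Saccharomyces cerevisiae BJ5465), induced 36–48 hours with galactose, were stained 1 hour at 4 °C with 10% biotinylated, detergent-solubilized Sf9 membrane reagent, enriched on streptavidin microbeads, then FACS-sorted. Anti-HA (expression) and streptavidin (reagent binding) fluorescence set low and high (top ~1%) gates. Polyreactivity labels come from the gate of origin. Genes were colony-PCR amplified, MiSeq 2 × 250 sequenced and filtered by CDR length.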

Sequence	polyreactivity (PSR sort gate)
QVQLVESGGGLVQAGGSLRLSCAASGRTFGYYAMGWYRQAPGKERELVAAISTSGGGTYYADSVKGRFTISRDNAKYTVYLQMNSLKPVDTAVYYCARDRNTRYKFDYWGQGTQVTLSS	low polyreactivity
IIQAGGSLRLSCAASGRTFSGYAMGWYRPAPGKERELIADITSGGSTYYADSVKGRFTISRDNAKNTVYLQMNSLKPEDTAVYYCNKVYPVVLYEPQYDYWGQGTQVTVSS	low polyreactivity
QVQLVESGGGLVQAGGSLRLSCAASGRTFRYYTMGWYRQAPGKERELVAAITRNGGRTYYADSVKGRFTISRDNAKNTVDLQMNSLKPEDPAVYYCAPGTYDGGYHYDYWGQGTQVTVSS	high polyreactivity
QVQLVESGGGIVQAGCSLRLSCAASGFTFERYTMGWYRQAPGKERELVATISRRSGRTSYADSVKGRFTISRDNAKNTVYLQMNSLNPEDTAVYYCAVDDAYPDRYDYWGQGTQVTVSS	high polyreactivity
QVQLVESGGGLVQAGGSLRLSCSASGRIFGAYAMGWYRQAPGKERELVAAITSAGSAHYADYVKGRFTISRDNAKNTVYLQMNSLKPEDTAVYYCAADGIARAYVLFYAYDFLYDYWGQGTQVTVSS	low polyreactivity
QVQLVESGRALVQAGGSLRLSCAASGSTSRIYALGWYRQAPWKERELVAALTRSGGSTYYADSVKGRFTISRDNAKNTVYLQMNSLKPEDTAVYYCAADYRSHSRYRYDKVDYWGQGTQVTVSS	high polyreactivity
QVQLVESGGGFVQAGGSLRLRCAASGLIFAPYAMGWYRQAPGKEREFVAAITRSDGSTYYADSVKGRFTISRDNAKNTVYLQMNSLKPEDTAVYYCAAEPDTYWYTYDYWGQGSQVTVSS	low polyreactivity
QVQLEESGGGLVQAGGSLRLSCAASGSIFQINAMGWYRQAPGKERELVAAITRGGGTTYYADSVKGRFTISRDNAKNTVYLQMNSLKPEDTAVYYCAADFERRRYDYWGQGTQVTVSS	low polyreactivity
QVQLVESGGGLVQAGGSLRLTCAASGSTFTYNGMGWYRQAPGKERELVAAITKRGGSTYYADSVKGRFTISRDNAKNTVYLQMNSLKPEETAVYYCAKPAASGFRWDSGYWGQGTQVTLSS	high polyreactivity
QVQLVESGGGLVQARGSLRLSCAASGSTFHQYVMGWYRQAPGKESELVAAINSSGSSTYYADSVKGRFTISRDNAKNTVDLQMNSLKPEDTAVYYCARDGLRNPGGYGFWGQGTQVTVSS	low polyreactivity
QVQLVESGGGLVQAGGSLRLSCAASGRIFLVNAMGWYRQAPGKEREFVAAITDNTGSTYYADSVKGRFTISRDNAKNTVYLQMNSLKPEDTAVYYCAKQRGNKRIGYDSWGQGTQVTVSS	low polyreactivity
QVQLVESGGGLVQAGVSLRLSCAASGFIFNIYAMGWYRQAPGKERELVAAISWRGGSTYYADSVKGRFTISRDNAKNTVYLQMNSLKPEYTAVYYCDVEDVWVGVFGDYDYWGEGTQVTVSS	low polyreactivity
QVQLVESGGGLVQAGGSLRLSCAASGSTFIGYTMGWYRQAPGKERELVAAIRYSSGRTYYADSVKGRFTISRDNAKNTVYLQMNSLKPEDTAVYYCAAANPRDHRGANDYWGQGTQVTVSS	high polyreactivity
QVQLVESGGGLVQAGGSLRLSCAASGRILNTYTMGWYRQAPGKERELVAAITSRGGSTYYADSVKGRFTISRDNAKNTVYLQMNSLKPEDTAVYYCAAGYPYDYWGQGTQVTVSS	high polyreactivity
QVQLVESGGGLVHAGGSLRLRCAASGRTFYFSNMGWYRQAPGKQRELVATIRWSAGSTYYADSVKGRFTISRDNAKNSVYLQMKSLKPEDTAVYYCNGDPYVYSSWQYGYWGQGTQVTVSS	high polyreactivity
QVQLHESVGGLVQAGVSLRLSCEASGTNFTARFIGWYRQAPGKERELVATITDGCYTNHADSVNGRFTISRDNAKNTVYLTMNSLKPEVAAVYYCAAGDVDNDTLMYWGQGSQVTVSS	low polyreactivity

Sequence	polyreactivity (PSR sort gate)
QVQLVESGGGLDQAGGTLRLSSAASGSTFYTNAMGWYRQAPGKERELVAAISGSGGSTYYADSVKGRFTISRDNAKNTVYLQMNSLKPEDNAVYYCAARSRYYDTRFDYWGQGTQVTVSS	low polyreactivity
QVQHEESRRGLVQAGVSLRLRCAASGYTFRVYLMGCYRQAPGKERELVAAITYSGGRTYYADSVKGRFTISRDNAKNTVYLQMNSLKPVDTAVYYCAAERPWYGRDRGFDYWGQGTQVTVSS	high polyreactivity
QVQLVESGGGLVQARGSLRLSCAASGRNFPSNAMGWYRQAPGKERELVPVITRGSRTKYADCVKGRFTISRDKAMNTVYLQMNSLKPEDSAVYYCAALGGLLYTQGHSEAYWGQGTQGTVSS	low polyreactivity
QVQLVESGGGLVQAGGSLRLSCAASGSTFRGYVMGWYRQAPGKERELVAAISSGGRTYYADSVKGRFTISRDNAKNTVYLQMNSLKPEDTAVYYCNSNGRDVYYNWAYDYWGQGTQVTVSS	high polyreactivity
QVQLVESGGGLVQAGGSLRLSCAASGNHLRSLSLGWNRQAPGKQRELVAAITSSGASTYYADSVKGRFTNSRDNAKNSVYLQMNSLKPEDSAVYYCAAYLFRRYDYWGQGTQVSVSS	low polyreactivity
QVQLVESGGGLVQAGGSLRLSCAASGSNFSDNAMGWYRQAPRKERELVAAITSGGSTYYADSVKGRFTISRDKAKNTVYLQMNSLKPEDSAVYYCAADYWGQGTQVTVSS	low polyreactivity
QVQLVESGGGLVQAGGSLRLSCAASGSIFYTNAMGWYRQAPGKERELVAAIRYSGVSTYYADSVKGRFTISRDNAKNTVYLQMNSLKPEDSAVYSCAARGHPFKKSYGSWGQGTQVTVSS	high polyreactivity
QVQLVESGGGLVQAGGSLRLSCAASGSILTYYAMGWYRQAPGKERELVAAINNIGGSTYYADSVKGRFTISRDNAKNTVYLQMNSLKPEDTAVYYCAKYYAWPYDYWGQGTQVTVSS	low polyreactivity
QVQLVESGGGLVQAGGSLRLSCAASGRTFQINAMGWYRQAPGKERELVAAITWSGGSTYYADSVKGRFTISRDNAKNTVYLQMNSLKPEDTAVYYCNKRYRAYATLNLIAGYNYWGQGTQVTVSS	low polyreactivity
QVQLVESGGGLVQAGGSLRLSCAASGRTFYLNAMGWYRQAPGKERQLVAVISYRGDSTYADSVKGRFTISRDNAKNTVYLQMNSLKPEDTAVYYCAADLTRYHYRYLVTHWWYDYWGQGTQVTVSS	low polyreactivity
QVQLVESGGGLVQAGGSLRLSCAASGRILPWYAMGWYRQEPGKERELVARIRSTDSSNYADSVKGRFTISRDNAKNTVYLQMNSLKPEDTAFYYCAKVQWGFPYAWLGSDYWGQGTQVTVSS	low polyreactivity
QVQLVESGGGLVQAGGSLRLSCAASGFIFDYYMGWYRQAPGKERELVARISYTGGSTYYADSVKGRFTISRDNAKNTVYLQMNSLNPEDTAVYYCATRGAEAERFASYDFDYWGQGTQVTVSS	low polyreactivity
QVQLVESGGGLVQAGGSLRLSCAASGRTFYRYVMGWYRQAPGKERELVATITNGGSTNYADSVKGRFTISRYNAKNTVYLQMNSLKPEDTAVYYCAADYPGYVGWPYSYEYYYWGQCTQVTVSS	low polyreactivity
QVQLVESGGGLVQAGGSLRVSCAASGSTFVYYAMGWYRQAPGKERELVAAITASGGGTYYADSVKGRFTISRDNAKNTVYLQMNSLKPEDTAVYYCNRGYDYWGQGTQVTVSS	low polyreactivity
QVQLVESGGGLVQAGGRLRLICAASGRTFTPYAMGWYRQAPGKERELVAAITRGGSTYYADSVKGRFTISRDNAKNTVYLHMNSLKPEDTAVYYCNALVSYYKLSSEYDYWGQGTQVTVSS	high polyreactivity
QVQLVESGGGLVQAGGSLRLSCAASGSTFDYYAMGWYRQAPGKERELVGVISSSGGSTYYADSVKGGFTISRDNAKNTVYLQMNSLKPEDTAVYYCAALYRNYGSSYAYYYWGQGTQVTVSS	low polyreactivity
